{"source": "the DeepSol protein solubility set", "experiment": "soluble on expression in E. coli; label from the status in PepcDB or PDB records"}
{"sequence": "MKDNEQKAGSVADQKNKIRERYKGVSIDELDVIPALPQEDIFAVENEQRVAVYARVSTDDPRQTSSYELQKNHYHDVISKSPNWKLVQIYADEGISGTSLQHRDQFKLMIEDCKKGEIDLIVTKSVSRFARNVVDCIGYVRELLALPHPVGVFFETERLNTFDPKSEMVLSFMATLAQEESHTKSEIMNASIEMRFRRGIFLTPTLLGYDHDEDGNLVVNEGEAKIVRLIFMMYLNGCTCQEIADTMTELGCETKKGNTVWSPGSILQILQNERHCGDVLARKTYTPNYLNHKSKKNMQNRPQYRKRNHHEAIISRDDFIAVQRLISNAKYGNKGILPELKVISNGVLKGFVSINPRWAGFKENDYISASLSVYDQMEQLSPSASSVEVQSGDFDLRGYEIARSQFFDGTDRITVTFSLNDIKFSTAAVRKLNSTLVELLLHPNKHLFAVRTASQAHRNAMQWAKKRGELSVPRAVSGTAFMPTVYALLGWNTDCRYRITGIRRGNGNDAVLLFNLEETEIFIPSDVIDEQQTSDARTDVKPLEHHHHHH", "values": [{"measurement": "soluble on expression in E. coli", "value": "soluble"}]}
{"sequence": "MGSDKIHHHHHHMGLEDLYLSWPKWFSEALARYSSLEGALEGVEEIYYCGMGGSGAAGDYIEALLSIYAPQGPEFRVVKDFRPPRPPRHRGYGLVLASYSGNTLETVECGSLLSPAAGRVVAVTSGGRLLEMAKERGWLVARLPGGILPRVSFPWMLAASTAMLSGALGVDLEALKRLAGGLDTQGLKGEAERLAGFISRYRIASLVTCGPGIPLAVRLKNELAENAKMPSRLEIYPESSHNDIVALEAAEGLYGAVFIWIEHEGSLCPAVLDVVEGIYREYGVDTISIESSARGGPNATVAEYLSRTLVFGLASVRLALMRGFNPEETPPIDKYKRRLGEALRSQA", "values": [{"measurement": "soluble on expression in E. coli", "value": "not soluble"}]}
{"sequence": "MEENGMKSKILIFGGTGYIGNHMVKGSLKLGHPTYVFTRPNSSKTTLLDEFQSLGAIIVKGELDEHEKLVELMKKVDVVISALAFPQILDQFKILEAIKVAGNIKRFLPSDFGVEEDRINALPPFEALIERKRMIRRAIEEANIPYTYVSANCFASYFINYLLRPYDPKDEITVYGTGEAKFAMNYEQDIGLYTIKVATDPRALNRVVIYRPSTNIITQLELISRWEKKIGKKFKKIHVPEEEIVALTKELPEPENIPIAILHCLFIDGATMSYDFKENDVEASTLYPELKFTTIDELLDIFVHDPPPPASAAF", "values": [{"measurement": "soluble on expression in E. coli", "value": "soluble"}]}
{"sequence": "MSLNDLVMDVDLDFADGQSPMRTKKANEIIRDPISGSVVIPIDADKFPKESHNSPLVFKLGNGANENIMHVKSQKDVNLYPVPLSTSDFSENFINYICNLFDIYQDLGSHRIFSRPTIGVISSDYELEHTRVVNMALDSMIIELEILIASYDKLENANIARILELEQCLVILQCLRTFQFIDSINDRATFFDSLLKWTNRTDGEPKVEYIQSIFGQSDSSQVFFTEPFWKLVYQLLLRGLTEQAINTLEKSELAKYLKENCETTSTIFEDFIQLVKNYPLESEEHFREWKSFALELQQNFEDADTKIPVPLRKNLLDAISITAGNRDKILQHSSFWYESLTGFLLYYIPSEELIQEYVGLAVSKTPIDVTNPWETACLKILQNDIFPVLPILESLDNCTASFSAALCESKGLLIDRYTILEENSGSDDIEIDDIFSQRNGMASFLLNNFALELCSMKMKTLWPVAIGLISLSPYNTPSSKKSTIAELIPHYPFETNDDIEWALSVCAKWRLPDIAKEIYTTLGNQMLDNGNTVEAIANFSKAGQYELVKHYSWLLFENAAFQGKPMEDEVLSAIVDGDFNTSELIPDEVLNKVVTNAMRQSLSPYAVLSQFFSNVENERWSKALQQLMSLIEFEYLPKKYTVLLIVKYMYPLFLNDDQRMIDEETLVSLLAAIEKNWDCDDTDSVIAYEKLSEEIADLPKELKSMEKLIRKKLNGKLCLNLMIEGHHHHHH", "values": [{"measurement": "soluble on expression in E. coli", "value": "soluble"}]}
{"sequence": "MAHHHHHHMKTLAKKTLQGGVSGKCGSQIIIAHGLLGNSTNWMSVGRRLAAHDGVRGRLEEIHMLDMRNHGESPHFNAHTNATMASDIEHFVLQQQRQWQSRAGAEGDGGIVLIGHSMGGFAVMGSMLRRANETSLLLQSGVEELEQRCKRGDYYGWCDEQGNAAEMRAVNRAMGLPETQPLYDILYDCKGDNVARPPRVKAVVIVDITPSTALGTHRQHGQNSSETLDAMVAADLSRVHSFGDGNAELERVGVSNKAMRDFLLTNLRLDPRTKEATWRCNLPVLRADYNSIALGVSGWFLSASEKVSRDRGGELVAPLRCSLPTLFVFGQNSPYNTPEDRRLIPRFFSNAIEVEVEGAGHFVHYEKMQEFVNVVVPFLTEYL", "values": [{"measurement": "soluble on expression in E. coli", "value": "not soluble"}]}
{"sequence": "MVKIRLARFGSKHNPHYRIVVTDARRKRDGKYIEKIGYYDPRKTTPDWLKVDVERARYWLSVGAQPTDTARRLLRQAGVFRQEAREGA", "values": [{"measurement": "soluble on expression in E. coli", "value": "soluble"}]}
{"sequence": "MTNNITPIHEYKKYWAECFGTAPFLPTSRKEMDALGWDSCDIIIVTGDAYVDHPSFGMAIIGRLLEAQGFRVGIIAQPEWQNKNAFMQLGKPNLFFGITAGNMDSMINRYTADKKLRHDDAYTPNNEGGKRPDRATLVYSQRCREAYKEVPIVLGGIEASLRRVAHYDYWSDKVRRSVLFDAKADILLFGNAERALVEVAHRIANGEDISTMTNIRGTAVNLPAAPEGYTVIDSSRIEKPRKEAFVPKNPYEVETQCETKKDEPVAQPITIRPSRHDAATTAVRLPSFEKLRNDRILYAHASRVLHLETNPYSGRALLQSHGDRELWVNQAPIPLTTEEMDFVFGLPYARVPHPMYGKAKIPAYDMIKTS", "values": [{"measurement": "soluble on expression in E. coli", "value": "not soluble"}]}
{"sequence": "EQHADPICNKPCKTHDDCSGAWFCQACWNSARTCGPYVG", "values": [{"measurement": "soluble on expression in E. coli", "value": "soluble"}]}
{"sequence": "MSLANRIRLHIWGDYACFTRPEMKVERVSYDVITPSAARGILSAIHWKPAINWVIDKIYVLKPIRFESVRRNELGAKISESKVSGAMKRKSVADLYTVIEDDRQQRAATVLKDVAYVIEAHAVMTSKAGVDENTTKHIEMFKRRALKGQCFQQPCMGVREFPAHFALIDDNDPLPLSQLSESEFNRDLGWMLHDIDFEHGNTPHFFRAELKNGVIDVPPFYAEEVKREGHHHHHH", "values": [{"measurement": "soluble on expression in E. coli", "value": "soluble"}]}
{"sequence": "MKNSKAILQVPGTMKIISAEIPVPKEDEVLIKVEYVGICGSDVHGFESGPFIPPKDPNQEIGLGHECAGTVVAVGSRVRKFKPGDRVNIEPGVPCGHCRYCLEGKYNICPDVDFMATQPNYRGALTHYLCHPESFTYKLPDNMDTMEGALVEPAAVGMHAAMLADVKPGKKIIILGAGCIGLMTLQACKCLGATEIAVVDVLEKRLAMAEQLGATVVINGAKEDTIARCQQFTEDMGADIVFETAGSAVTVKQAPYLVMRGGKIMIVGTVPGDSAINFLKINREVTIQTVFRYANRYPVTIEAISSGRFDVKSMVTHIYDYRDVQQAFEESVNNKRDIIKGVIKISD", "values": [{"measurement": "soluble on expression in E. coli", "value": "soluble"}]}
{"sequence": "MSEIINNREYRQKVLKELIRELHDGKSVEEIKPRFEELIKGISPAEISEMEQALIMEGMPVEEIQRLCDVHAAVFKGSIEEIHRPQKPEEVPGHPIHTFKLENAEIRKLVDNEIRPQLELYKNGDTAESLKKLREAFQKLWEIDKHYSRKENLLFPYLEKYGITAPPKVMWGVDDEIRADIKEINNKLSANAQNQNIPLEKAEEAVNRVIEMIFKEENILFPMALETLTEDEWAEIARASDEIGYCMITPEAEWKPARVDVVEKTQKEGVKSQENQGFVEFDAGCLTTEEINAMLNTLPIDITFVDKNDTVKYFTQGKERIFARPKTIIGRKVQNCHPPASVHIVEKIIEDLKSGKKDHEDFWIKMGEKYVYIRYFAVRNEKGEYLGTIEVTQDIAPIQKITGEKRLLSDA", "values": [{"measurement": "soluble on expression in E. coli", "value": "soluble"}]}
{"sequence": "MSLGEIWYGGTIYTMREENEKVDAIYVENGMIVDVGSKKELENRYAAVTLYDLEDKTMIPGLVDSHMHLIGHGERLLRLDLSNCTSYSEVLTLVRKRVEEAPKGSWIIGEGWNENNFTDTKDVHARDLDEISKEHPILLKRVCRHVTWVNSYILQEANITEKAEDPKGGKIGRDSSNMLTGLLYEQGQELIKHVQPEIDEAYLQSALQTAIKDCWQYGLVGGHTEDLNYYGGFRKTHNAFSHVIKEMPFKAHLLVHHEVAQERKEYENEHYIEFGAMKIFSDGSFGGRTALLSEPYEDAKETNGVAIFSREELAELVKKARDLHMPVAIHTIGDLSLEYVIDALELYPPAEGLRDRIIHCQLAREELIERMKNLQAIIDIQPVFVSSDFPSVIEKLGEHRLRYAYAWKTLLEAGLHCNGGSDAPIEQVNPFLGIYSAVTRRSFIDGVCYMPEERLTAYEAVSLFTTGSAYAIGKEEKRGQITKGYEADFTILDRNIFEIEAEEIKEVQAEMTVIDGKVVYRKDAEGHHHHHH", "values": [{"measurement": "soluble on expression in E. coli", "value": "soluble"}]}
{"sequence": "MAHHHHHHMHNSVPASNTCSPFREETVSKRGKRSRGTGGDDKITRGTCSQPFSVITLPPGKLLEWLVCSPCRVYDVNLPRSRNNDNNISSLQCAVLPNFFVEYGGRSYSCVAKVCKPQLRKVLLRALAAVRQEMGSVDDIPHDSLLVVAVSPINAFSSECIHDASRTAMPRAREGCKIVGLCVARELSAPHRMHCESNWSHEKSEASGVGAAVQEGLGDCWEEDATRVGGTNNVRKAFCGVQLVWVADCYRRHGVAKVLVDTARRHISYGFEVPVERVAFSEPTSLGKLFAKSYSGRPDFLI", "values": [{"measurement": "soluble on expression in E. coli", "value": "soluble"}]}
{"sequence": "MLLDKLSRPLKVLRISLTDRCNLRCNFCMPPGKEYNFLPKRQLLTPEEIEEYVKIFAKLGVEKVRLTGGEPLLREDLEEIIQRISKVEGIKDIALTTNGVFLKERLKALKEAGLKRITVSVHSLNPEKNQKLVNRSVNLGEVFEVIIRAKELGFKVKVNSVIIKGFNDDEILDLARFFKNLGVTLRFIEYMDVGTVNDWDFSKVVSADEILNLMKKEFTFYPLPKRPEDTSMDFIYEDGNKFGIIASVTKPFCRGCNRIRLSADGKLYTCLFSDKGHDLRNAVDKENFIKEVWKDRKDRYSELRRQMKRERKVEMFKVGGMGHHHHHHSH", "values": [{"measurement": "soluble on expression in E. coli", "value": "soluble"}]}
{"sequence": "MASEVRIKLLLECTECKRRNYATEKNKRNTPNKLELRKYCPWCRKHTVHREVKI", "values": [{"measurement": "soluble on expression in E. coli", "value": "soluble"}]}
{"sequence": "MSLRCPTCQYNGTRVVDSRPADDGNSIRRRRECEKCGFRFTTFEKVEESPLIVVKKDGAREEFAREKVRRGLIRACEKRPVSAEQIEEIVNEVERELRNIGDSEIASDLIGEKVMNKLANLDEVAYVRFASVYRQFKDISVFVEELKDLMEKNKEGHHHHHH", "values": [{"measurement": "soluble on expression in E. coli", "value": "soluble"}]}
{"sequence": "MYYHALKLSRLAMLTLAGVAVSASAIAADSAPTSQIGPTAEAYIVSHPDKVGEVVATYLAEHPEFLVAASETLHQRQQIAQQQAYVQLALQYRAELLSSSSPSVGPNEAKAAVVMFFDYQCSWCSKMAPVVENLIKANPDTRFIFKEFPIFSSRWPVSGLAARVGEQVWLTQGGAKYLDWHNALYATGKVEGALTEHDVYTLAQHYLTPTQLAAVKEAQSSGAVHDALLTNQALAQHMDFSGTPAFVVMPQTQDGDVKRVTVIPGSTTQDMLQMAIQKAKG", "values": [{"measurement": "soluble on expression in E. coli", "value": "not soluble"}]}
{"sequence": "MGSDKIHHHHHHMSDPAGKPCIICVAITGSLPTKENNPAVPITLAEQVESTHEAFEAGASIAHCHVRDDEGRPTSDPDRFAALKEGLERHCPGMIVQLSTGGRSGAGQARGAMLPLCPDMASLSVGSNNFPTRVYENPPDLVDWLAAEMLKYDIKPEIEAFDLSHILQAKRMAGDGRLAGTPYVQFVMGVRNAMPADRDVFDYYIHTVRRLFGEDAPWCAAGIGPSQIVLNEWAISSGGHARTGLEDNVRLDRDRLAPSNAALVGRAVELCEKYERPVATWRQARQILGLRMV", "values": [{"measurement": "soluble on expression in E. coli", "value": "not soluble"}]}
{"sequence": "MGSDKIHHHHHHMSQPPLPAVCTQAASALLPVAIDYPAALALRQMAMQHDDYPKYLLAPEVSALLHYVPDLHRRMLLATLWNTGARINEALALTRGDFSLAPPYPFVQLATLKQRAEKAARTAGRMPSGSQPHRLVPLSDNQYVSELQMMVATLKIPLERRNRRTGRTEKARLWEITDRTVRTWIGEAVEAAAADDVTFSVPVTPHTFRHSYAMHMLYAGIPLKVLQALMGHKSVSSTEVYTKVFALDVAARHRVQFQMPGADAVAMLKGGS", "values": [{"measurement": "soluble on expression in E. coli", "value": "not soluble"}]}
{"sequence": "MGSDKIHHHHHHMRIAAYENFITKLLMNNKCMDINEIDKYILRTTSNNYNLVKKQLDRTNKLLEERYERYGCLTEEDNVEALKKGYYDLGKIGLTLEEIRKKIAKFQIDKESPMGIQIEKDWNFATFLLQDLLQLENMNLITYSRLLEERLSELSKNKTNKKTYNKPNNKETTIKTNSPTTNSSDIMTIDEICALLHLSKSKIYHMACAHEIPHHKLNPSKKGRLYFFRSEIEEWLRNKRIRTVDEFLLQFEN", "values": [{"measurement": "soluble on expression in E. coli", "value": "not soluble"}]}
